In patent US7018791B1, “Binding complexes” (Institute of Cancer Research: Royal Cancer Hospital, priority 1997, dated 2006):
Blank lines part the entries; values can stand above or below the molecule they belong to. * marks the point of attachment. Biotin = O=C1N[C@H]2[C@H](CS[C@H]2CCCCC(=O)*)N1

Key:
CCT [1] = test system: T1, CCT; test: Interaction of soluble biotinylated peptides with CCT (native PAGE, streptavidin/Neutravidin-HRP blot); type: binding, mouse
T1 construct: Take 20S mouse testis sucrose gradient fractions enriched in CCT; from tissue; host or cells: mouse testis, 20S sucrose gradient fractions

mouse CCTγ subunit = target: T2, mouse CCTγ subunit (mouse, UniProt P80318 1-545); test: superimposable bands, 6% non-denaturing PAGE Western blot of sucrose fractions 13 and 14; footnote: not very clear in mouse testis but substantiated in Human 293 cells
T2 construct: Endogenous subunit in mouse testis sucrose fractions
T2 sequence (looked up): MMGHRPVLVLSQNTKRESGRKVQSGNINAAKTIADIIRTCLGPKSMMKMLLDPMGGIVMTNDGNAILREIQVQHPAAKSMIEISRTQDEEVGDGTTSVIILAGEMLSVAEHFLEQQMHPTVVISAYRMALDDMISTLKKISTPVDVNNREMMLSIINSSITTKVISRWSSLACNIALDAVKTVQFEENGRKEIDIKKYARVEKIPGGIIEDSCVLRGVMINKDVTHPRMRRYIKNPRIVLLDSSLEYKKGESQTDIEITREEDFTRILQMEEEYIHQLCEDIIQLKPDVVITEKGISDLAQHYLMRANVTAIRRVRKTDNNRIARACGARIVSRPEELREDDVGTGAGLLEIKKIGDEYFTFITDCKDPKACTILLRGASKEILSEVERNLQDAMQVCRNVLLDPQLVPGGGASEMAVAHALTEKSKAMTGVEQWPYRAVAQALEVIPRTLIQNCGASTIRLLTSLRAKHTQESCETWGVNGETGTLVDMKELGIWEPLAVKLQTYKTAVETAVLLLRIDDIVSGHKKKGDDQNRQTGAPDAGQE

[2] = target: T3, mouse CCTα subunit (wildtype) (mouse, UniProt P11983 1-556); test: superimposable bands, 6% non-denaturing PAGE Western blot of mouse testis sucrose fractions 13 and 14, subunit-specific antibodies
T3 construct: in the 23C experiment translated in vitro and incorporated into rabbit CCT; also called CCTa; CCTA

[3] = target: T4, human CCTγ subunit (human 293 cells) (human, UniProt P49368 1-545); test: superimposable bands, non-denaturing PAGE Western blot of sucrose fractions 13 and 14 of human 293 cells
T4 sequence (looked up): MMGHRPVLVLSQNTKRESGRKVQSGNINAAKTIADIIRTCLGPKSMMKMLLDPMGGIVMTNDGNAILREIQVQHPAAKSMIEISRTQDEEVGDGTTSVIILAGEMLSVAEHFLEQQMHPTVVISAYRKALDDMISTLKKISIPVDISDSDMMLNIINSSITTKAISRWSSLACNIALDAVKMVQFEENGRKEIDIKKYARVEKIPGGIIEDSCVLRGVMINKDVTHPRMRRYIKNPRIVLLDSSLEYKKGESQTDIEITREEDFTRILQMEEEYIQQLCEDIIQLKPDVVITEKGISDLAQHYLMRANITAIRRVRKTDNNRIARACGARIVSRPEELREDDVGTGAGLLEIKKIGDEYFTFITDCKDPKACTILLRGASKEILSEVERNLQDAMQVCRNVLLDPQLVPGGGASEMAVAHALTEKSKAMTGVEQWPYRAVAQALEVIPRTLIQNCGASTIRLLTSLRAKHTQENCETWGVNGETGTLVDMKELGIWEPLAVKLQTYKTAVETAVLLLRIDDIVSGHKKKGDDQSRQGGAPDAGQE

[4] = target: T5, CCT (chaperonin containing TCP-1) complex from mouse testis (mouse, UniProt P11983 1-556; P80314 2-535; P80318 1-545; P80315 1-539; P80316 2-541; P80317 …); test: biotinylated peptide with CCT in solution, 6% native PAGE, blot probed with streptavidin/Neutravidin-HRP
T5 construct: Hetero-oligomer: eight different subunits in each of two rings (double toroid, about 920 kDa), enriched from mouse testis 20S sucrose gradient fractions; Testis also holds CCTζ2; also called CCT complex; intact CCT

CCT [5] = test: In vitro translation in rabbit reticulocyte lysate, interaction with CCT on native PAGE; type: binding; conditions: kinetics different from folding substrates actin or tubulins
Description: Time courses of interactions of cyclins with CCT were analysed on 6% native polyacrylamide gels (Liou & Willison,EMBO J. 16, 4311–4316, 1997). At the indicated times, 5 μl aliquots of the lysate reactions were added to 7 μl of […] EDTA (ph 8.0) and 4 μl of 4× gel loading buffer and placed on ice. The lanes 1–6 show CCT a at t=0, 5, 10, 20, 30, 60 minutes. Lanes 7–12 show pBSK CY1 1 (mouse D1) at t=0, 5, 10, 20, 30, 60 minutes.
Upon in vitro translation of actin mRNA in rabbit reticulocyte lysate, several truncated forms of ^35S-actin are captured by and accumulate on CCT. This is also the case for α-tubulin (Liou, K. F., et al, Biological Chem. Hoppe-Seler 379, 311–319, 1998). […] Thus, the actin is fragments are not ribosome released nascent chains, but are the consequence of initiation of translation at internal methionine residues in actin, and a comparison of the experimentally determined molecular weights of the truncated forms with the sequential occurrence of the methionines in mouse β-actin supports this interpretation. […] Therefore, no fragments smaller than 29 kDa are produced by internal initiation in the IVT reaction.
The present inventors made fusion proteins which linked β-Actin Site I (residues 31–70) or Site II residues 178–262; 6 of the peptides (Table 2) are located in this segment) containing fragments to the C-terminus of Ha-Ras (residues 1–166). […]

Molecule: biotin-SGSG-AAAAAQGVMVGMGQK [peptide 8.6]
effect of alanine substitution in GRPRH core sequence on binding to CCT (CCT [1]; free solution assay, derivatives of peptide 8): abrogation of binding to CCT

Molecule: biotin-SGSG-GRPRHQGVMVGMGQK [peptide 8]
binding of peptide to CCT in free solution (co-migration with CCT complex) (CCT [1]; biotinylated peptide, non denaturing gel): co-migrate with the CCT complex

B1: mouse CCTβ subunit (other, UniProt P80314 2-535, looked up)
chain: ASLSLAPVNIFKAGADEERAETARLSSFIGAIAIGDLVKSTLGPKGMDKILLSSGRDAALMVTNDGATILKNIGVDNPAAKVLVDMSRVQDDEVGDGTTSVTVLAAELLREAESLIAKKIHPQTIISGWREATKAAREALLSSAVDHGSDEARFWQDLMNIAGTTLSSKLLTHHKDHFTKLAVEAVLRLKGSGNLEAIHVIKKLGGSLADSYLDEGFLLDKKIGVNQPKRIENAKILIANTGMDTDKIKIFGSRVRVDSTAKVAEIEHAEKEKMKEKVERILKHGINCFINRQLIYNYPEQLFGAAGVMAIEHADFAGVERLALVTGGEIASTFDHPELVKLGSCKLIEEVMIGEDKLIHFSGVALGEACTIVLRGATQQILDEAERSLHDALCVLAQTVKDPRTVYGGGCSEMLMAHAVTQLANRTPGKEAVAMESFAKALRMLPTIIADNAGYDSADLVAQLRAAHSEGHITAGLDMKEGTIGDMAVLGITESFQVKRQVLLSAAEAAEVILRVDNIIKAAPRKRVPDHHPC
notes: Endogenous subunit in mouse testis sucrose fractions
binding result (mouse CCTγ subunit): binds

B5: peptide 8.6, biotin-SGSG-AAAAAQGVMVGMGQK (peptide)
peptide: Biotin-SGSGAAAAAQGVMVGMGQK-NH2
SMILES: CSCC[C@H](NC(=O)CNC(=O)[C@@H](NC(=O)[C@H](CCSC)NC(=O)[C@@H](NC(=O)CNC(=O)[C@H](CCC(N)=O)NC(=O)[C@H](C)NC(=O)[C@H](C)NC(=O)[C@H](C)NC(=O)[C@H](C)NC(=O)[C@H](C)NC(=O)CNC(=O)[C@H](CO)NC(=O)CNC(=O)[C@H](CO)NC(=O)CCCC[C@@H]1SC[C@@H]2NC(=O)N[C@@H]21)C(C)C)C(C)C)C(=O)NCC(=O)N[C@@H](CCC(N)=O)C(=O)N[C@@H](CCCCN)C(N)=O
notes: All five core residues replaced by alanine
binding result [4]: no binding (tested: peptide 13.3 µM or 1.33 µM, CCT 70 nM)

B6: Cyclin D1: mouse cyclin D1 translated in rabbit reticulocyte lysate (protein)
chain: MEHQLLCCEVETIRRAYPDTNLLNDRVLRAMLKTEETCAPSVSYFKCVQKEIVPSMRKIVATWMLEVCEEQKCEEEVFPLAMNYLDRFLSLEPLKKSRLQLLGATCMFVASKMKETIPLTAEKLCIYTDNSIRPEELLQMELLLVNKLKWNLAAMTPHDFIEHFLSKMPEADENKQTIRKHAQTFVALCATDVKFISNPPSMVAAGSVVAAMQGLNLGSPNNFLSCYRTTHFLSRVIKCDPDCLRACQEQIEALLESSLRQAQQNVDPKATEEEGEVEEEAGLACTPTDVRDVDI
binding to CCT (binding partner) (CCT [5]): specific binding partners for CCT

B7: Cyclin D2: cyclin D2, CCT binding partner (protein, UniProt P30279 1-289, looked up)
G1/S-specific cyclin-D2: MELLCHEVDPVRRAVRDRNLLRDDRVLQNLLTIEERYLPQCSYFKCVQKDIQPYMRRMVATWMLEVCEEQKCEEEVFPLAMNYLDRFLAGVPTPKSHLQLLGAVCMFLASKLKETSPLTAEKLCIYTDNSIKPQELLEWELVVLGKLKWNLAAVTPHDFIEHILRKLPQQREKLSLIRKHAQTFIALCATDFKFAMYPPSMIATGSVGAAICGLQQDEEVSSLTCDALTELLAKITNTDVDCLKACQEQIEAVLLNSLQQYRQDQRDGSKSEDELDQASTPTDVRDIDL
binding to CCT (binding partner) (CCT [5]): specific binding partners for CCT

Continued, values first:

binding result [2]: binds
B2: mouse CCTε subunit (other, UniProt P80316 2-541, looked up)
chain: ASVGTLAFDEYGRPFLIIKDQDRKSRLMGLEALKSHIMAAKAVANTMRTSLGPNGLDKMMVDKDGDVTITNDGATILSMMDVDHQIAKLMVELSKSQDDEIGDGTTGVVVLAGALLEEAEQLLDRGIHPIRIADGYEQAARIAIQHLDKISDKVLVDINNPEPLIQTAKTTLGSKVINSCHRQMAEIAVNAVLTVADMERRDVDFELIKVEGKVGGRLEDTKLIKGVIVDKDFSHPQMPKKVVDAKIAILTCPFEPPKPKTKHKLDVMSVEDYKALQKYEKEKFEEMIKQIKETGANLAICQWGFDDEANHLLLQNGLPAVRWVGGPEIELIAIATGGRIVPRFSELTSEKLGFAGVVQEISFGTTKDKMLVIEKCKNSRAVTIFIRGGNKMIIEEAKRSLHDALCVIRNLIRDNRVVYGGGAAEISCALAVSQEADKCPTLEQYAMRAFADALEVIPMALSENSGMNPIQTMTEVRARQVKESNPALGIDCLHKGSNDMQYQHVIETLIGKKQQISLATQMVRMILKIDDIRKPGESEE
notes: as for B1

binding result [2]: binds
B3: mouse CCTη subunit (other, UniProt P80313 1-544, looked up)
chain: MMPTPVILLKEGTDSSQGIPQLVSNISACQVIAEAVRTTLGPRGMDKLIVDGRGKATISNDGATILKLLDVVHPAAKTLVDIAKSQDAEVGDGTTSVTLLAAEFLKQVKPYVEEGLHPQIIIRAFRTATQLAVNKIKEIAVTVKKQDKVEQRKMLEKCAMTALSSKLISQQKVFFAKMVVDAVMMLDELLQLKMIGIKKVQGGALEESQLVAGVAFKKTFSYAGFEMQPKKYKNPKIALLNVELELKAEKDNAEIRVHTVEDYQAIVDAEWNILYDKLEKIHQSGAKVILSKLPIGDVATQYFADRDMFCAGRVPEEDLKRTMMACGGSIQTSVNALVPDVLGHCQVFEETQIGGERYNFFTGCPKAKTCTIILRGGAEQFMEETERSLHDAIMIVRRAIKNDSVVAGGGAIEMELSKYLRDYSRTIPGKQQLLIGAYAKALEIIPRQLCDNAGFDATNILNKLRARHAQGGMWYGVDINNENIADNFQAFVWEPAMVRINALTAASEAACLIVSVDETIKNPRSTVDPPAPSAGRGRGQARFH
notes: as for B1

binding result [3]: binds
B4: human CCTβ subunit (human 293 cells) (other, UniProt P78371 2-535, looked up)
chain: ASLSLAPVNIFKAGADEERAETARLTSFIGAIAIGDLVKSTLGPKGMDKILLSSGRDASLMVTNDGATILKNIGVDNPAAKVLVDMSRVQDDEVGDGTTSVTVLAAELLREAESLIAKKIHPQTIIAGWREATKAAREALLSSAVDHGSDEVKFRQDLMNIAGTTLSSKLLTHHKDHFTKLAVEAVLRLKGSGNLEAIHIIKKLGGSLADSYLDEGFLLDKKIGVNQPKRIENAKILIANTGMDTDKIKIFGSRVRVDSTAKVAEIEHAEKEKMKEKVERILKHGINCFINRQLIYNYPEQLFGAAGVMAIEHADFAGVERLALVTGGEIASTFDHPELVKLGSCKLIEEVMIGEDKLIHFSGVALGEACTIVLRGATQQILDEAERSLHDALCVLAQTVKDSRTVYGGGCSEMLMAHAVTQLANRTPGKEAVAMESYAKALRMLPTIIADNAGYDSADLVAQLRAAHSEGNTTAGLDMREGTIGDMAILGITESFQVKRQVLLSAAEAAEVILRVDNIIKAAPRKRVPDHHPC
